Patent US20060292683A1, “Cross-beta structures on microbial organisms” (Crossbeta Biosciences B.V., priority 2005, published 2006)

How the values were obtained:
[1] = biological target: glycated hemoglobin (Hb-AGE) (Homo sapiens, UniProt P68871+P69905); experiment: ELISA capture of glycated hemoglobin from solution by immobilized finger domains; assay type: binding; conditions: immobilized finger domain; not control hemoglobin
[2] = tested on: THP-1 monocytes; experiment: Tissue factor up-regulation in THP-1 monocytes by misfolded proteins; assay type: cell-based; conditions: 40 μg/ml glycated hemoglobin or 10 μg/ml amyloid-β(1-40); controls freshly dissolved
Procedure: For tissue factor expression analysis purposes, THP-1 cells were cultured in IMDM without gentamycin and streptomycin. At day 0, one ml of cells was seeded at 1×10^6 cells/ml in the wells of six-well culture plates. At day 1, […] PBS or with cross-beta structure binding compounds ThT, Congo red, tPA and IgIV, as described above, at a cell density of 1.8×10^7/ml (regular culturing conditions). Negative control was buffer. After six hours, the cells were pelleted by centrifugation and resuspended in 100 μl TBS (50 mM Tris-HCl, 150 mM NaCl, pH 7.0-7.3). Next, the cells were frozen and thawed for four subsequent cycles. Cells were centrifuged for ten minutes at 16,000*g and the supernatant was used for analysis of tissue factor (TF) expression. First, protein concentrations were determined using an established protein concentration assay (Bicinchoninic Acid (BCA) Protein Assay). Protein concentrations were equalized between samples with TBS to correct for variations in cell density. […] Conversion of the substrate by activated factor X at 37° C. was recorded in time for 100 minutes, by absorbance readings at 405 nm. As an additional control, factor X activity was assessed with S. aureus cells only, omitting the monocytes. […]

glycated hemoglobin (Hb-AGE), sequence (P69905 whole entry, the tested form may be a part): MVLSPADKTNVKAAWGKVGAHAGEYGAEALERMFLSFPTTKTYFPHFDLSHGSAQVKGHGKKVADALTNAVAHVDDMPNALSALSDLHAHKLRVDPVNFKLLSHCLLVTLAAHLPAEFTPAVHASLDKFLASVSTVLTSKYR
glycated hemoglobin (Hb-AGE), sequence (P68871 whole entry, the tested form may be a part): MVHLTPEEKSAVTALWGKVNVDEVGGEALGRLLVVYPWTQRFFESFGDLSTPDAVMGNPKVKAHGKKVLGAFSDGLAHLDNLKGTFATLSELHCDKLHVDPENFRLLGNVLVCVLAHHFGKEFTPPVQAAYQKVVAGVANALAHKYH

Row | Substance | capture of glycated hemoglobin in solution [1] | TF expression in THP-1 monocytes (factor X activation by lysates) [2]
1 | fibronectin F4-5 with a His-tag: recombinant fibronectin type I domains 4-5, N-terminally tagged to growth hormone and His6-tag, C-terminal His6-tag | specifically capture | –
2 | amyloid-β: amyloid-β(1-40) with cross-beta structure conformation | – | induce elevated levels of TF
